The numbers were not newly measured in PMC8961861, which cites them from elsewhere.

For the data set, the target named is Drebrin 1-300 (Homo sapiens) (UniProt Q16643). In words: NMR.
Sequence of UniProt Q16643 (Q16643 1-300): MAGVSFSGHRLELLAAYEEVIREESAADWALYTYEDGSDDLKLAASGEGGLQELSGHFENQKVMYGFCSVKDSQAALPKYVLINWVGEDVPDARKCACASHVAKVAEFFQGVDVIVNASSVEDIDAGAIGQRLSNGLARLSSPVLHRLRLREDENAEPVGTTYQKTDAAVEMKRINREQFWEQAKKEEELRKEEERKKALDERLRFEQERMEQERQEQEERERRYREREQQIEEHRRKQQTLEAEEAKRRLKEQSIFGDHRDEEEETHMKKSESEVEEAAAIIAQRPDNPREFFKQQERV

For orientation: Kd means a measure of binding affinity in units of concentration. In the case of Cx43CT 236-382 (from UniProt P08050), the Kd is 300 µM.
